Results from publication doi:10.1101/2021.02.22.432310, “Tetrameric UvrD helicase is located at the E. coli replisome due to frequent replication blocks” (bioRxiv, 2021).

Target: T1, Biotinylated UvrD (E. coli, UniProt P03018 1-720, biotin)
T1 construct: UvrD helicase (DNA helicase II), E. coli; also called E. coli UvrD
T1 sequence (looked up): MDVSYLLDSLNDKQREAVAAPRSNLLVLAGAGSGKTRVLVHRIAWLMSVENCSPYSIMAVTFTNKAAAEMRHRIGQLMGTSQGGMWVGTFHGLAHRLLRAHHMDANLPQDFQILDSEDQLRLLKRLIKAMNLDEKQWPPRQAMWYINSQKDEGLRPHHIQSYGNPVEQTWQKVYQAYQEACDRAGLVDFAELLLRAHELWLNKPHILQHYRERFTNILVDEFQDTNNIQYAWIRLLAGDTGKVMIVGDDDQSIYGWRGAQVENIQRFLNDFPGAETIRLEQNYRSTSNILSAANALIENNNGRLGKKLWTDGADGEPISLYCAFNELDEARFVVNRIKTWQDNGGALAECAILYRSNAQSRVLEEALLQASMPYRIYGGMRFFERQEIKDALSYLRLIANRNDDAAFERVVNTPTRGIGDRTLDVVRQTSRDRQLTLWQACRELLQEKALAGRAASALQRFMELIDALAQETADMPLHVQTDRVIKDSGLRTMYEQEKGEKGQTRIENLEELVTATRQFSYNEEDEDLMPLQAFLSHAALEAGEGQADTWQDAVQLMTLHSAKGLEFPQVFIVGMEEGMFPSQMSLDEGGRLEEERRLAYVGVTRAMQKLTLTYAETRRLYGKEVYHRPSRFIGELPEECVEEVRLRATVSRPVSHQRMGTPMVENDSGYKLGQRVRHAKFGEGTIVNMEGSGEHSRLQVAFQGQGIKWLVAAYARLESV
Test: SPR; BIAcore T200, 25°C; biotinylated UvrD or Rep immobilised on streptavidin-coated SA chips; Tau or UvrB passed over, ca. 200-4000 nM, 20 µl/min; 10 mM HEPES pH 7.4, 3 mM EDTA, 150 mM NaCl, 10 mM MgCl2, 0.05% Tween 20; single sites binding model
Conditions: both partners purified

B1: UvrB (natural protein, UniProt P0A8F8 1-673, looked up)
chain: MSKPFKLNSAFKPSGDQPEAIRRLEEGLEDGLAHQTLLGVTGSGKTFTIANVIADLQRPTMVLAPNKTLAAQLYGEMKEFFPENAVEYFVSYYDYYQPEAYVPSSDTFIEKDASVNEHIEQMRLSATKAMLERRDVVVVASVSAIYGLGDPDLYLKMMLHLTVGMIIDQRAILRRLAELQYARNDQAFQRGTFRVRGEVIDIFPAESDDIALRVELFDEEVERLSLFDPLTGQIVSTIPRFTIYPKTHYVTPRERIVQAMEEIKEELAARRKVLLENNKLLEEQRLTQRTQFDLEMMNELGYCSGIENYSRFLSGRGPGEPPPTLFDYLPADGLLVVDESHVTIPQIGGMYRGDRARKETLVEYGFRLPSALDNRPLKFEEFEALAPQTIYVSATPGNYELEKSGGDVVDQVVRPTGLLDPIIEVRPVATQVDDLLSEIRQRAAINERVLVTTLTKRMAEDLTEYLEEHGERVRYLHSDIDTVERMEIIRDLRLGEFDVLVGINLLREGLDMPEVSLVAILDADKEGFLRSERSLIQTIGRAARNVNGKAILYGDKITPSMAKAIGETERRREKQQKYNEEHGITPQGLNKKVVDILALGQNIAKTKAKGRGKSRPIVEPDNVPMDMSPKALQQKIHELEGLMMQHAQNLEFEEAAQIRDQLHQLRELFIAAS
Question: How did the Kd turn out when B1 was run?
Answer: The Kd was 231 nM.
